Biological target: Na+,HCO3- co-transporter NBCn1 (SLC4A7), native in MDCK-II cells (canine (endogenous in MDCK-II))
Test: proximity ligation; in situ PLA (Duolink II) with primary antibodies against NBCn1 and RACK1 in fixed non-confluent (60-70% confluency) MDCK-II or MCF-7 cells; control with only NBCn1 antibody

PLA signal, fold above the control with only NBCn1 antibody: 8 fold
Substance: RACK1, native in MDCK-II cells (natural protein)

From paper PMC5943355
